Two substances from publication PMC4931238 can be followed below.

Experiment [1] has as its target BG505 SOSIP.664 gp140 trimer (HIV-1 clade A BG505). The experiment is described as follows: SEC; Superdex 200 10/300 GL column, after GNL purification. For orientation: SEC sorts molecules by how far they enter the pores of the column.
In experiment [2] the target is gp120Sht-LS (clade-A BG505 gp120 fused to lumazine synthase) (HIV-1 clade A BG505 | Aquifex aeolicus). The experiment is described as follows: native gel or EMSA. For orientation: In EMSA bound probe runs differently from free probe, usually more slowly.

As to BG505 SOSIP.664 gp140 trimer (complex), the stoichiometry N in experiment [1] is 3.

With “gp120Sht-LS (clade-A BG505 gp120 fused to lumazine synthase)”, the stoichiometry N in experiment [2] came to 5.

Broadly, the stoichiometry N is the number of molecules, sites or subunits per partner or assembly.
